Assay [1] has as its target T1, human complement C3 (human, UniProt P01024 23-1663). The assay can be described thus: cell-based or functional assay.
Assay [2] addresses T1, human complement C3. The assay can be described thus: method not given.
Assay [3] addresses T2, human C3b (human, UniProt P01024 23-667; P01024 749-1663, limits assumed).
T2 construct: domain: C3b; also called C3 cleavage fragments C3b
The assay can be described thus: method not given.

For assay [4], the target named is T1, human complement C3. Briefly: SPR (Biacore T100), target immobilized, single cycle kinetics, 1:1 Langmuir fit. As to the method: (§1) The kinetic parameters of the candidates are determined using a surface plasmon resonance (SPR) and Biacore T100 device. C3 and different variants thereof (Table 19) are immobilized as a ligand on a HC30M SPR sensor chip (XanTec bionanalytics, Germany) using EDC/[…] linking chemistry. Five increasing concentrations of each molecule (analyte) are consecutively injected using the single cycle kinetics (SCK) mode to determine the kinetic parameters. Regeneration between the candidates is done with 10 mM glycine*HCl, 2 M NaCl, pH 3.5. The data is fitted to a 1:1 Langmuir binding model and the kinetic parameters of on-rate (ka), off-rate (kd), and affinity […] were determined.
For orientation: In SPR one partner is held on a chip, and binding of the other changes the refractive index at the surface.

Assay [5] concerns the target T2, human C3b. The description is as above. As to the method:
as §1

Assay [6] has as its target T1, human complement C3. The assay is described as above. As for the experimental part: as §1
This is another data set of the same source.

Assay [7] concerns the target T2, human C3b. The assay is described as above. As for the experimental part: as §1
This is another data set of the same source.

The target in a further assay is T3, cynomolgus C3 (cynomolgus (Macaca fascicularis)).
T3 construct: also called cyno C3
Described as above. As for the experimental part: as §1

The target of assay [8] is T4, recombinant wild-type human C3 (human, UniProt P01024 23-1663, limits assumed).
T4 construct: Expressed in CHO cells with an N-terminal 6×His tag; also called recombinant C3; wildtype C3
The assay is described as above. As to the method: as §1

For another assay, the target named is T5, human C3 P314L (human, UniProt P01024 23-1663, limits assumed).
T5 construct: Expressed in CHO cells with an N-terminal 6×His tag; also called C3 SNP1 P314L; C3 SNP P314L
Described as above. As for the experimental part:
as §1

The target in the next assay is T6, human C3 R102G (human, UniProt P01024 23-1663, limits assumed).
T6 construct: Expressed in CHO cells with an N-terminal 6×His tag; also called C3 SNP2 R102G; C3 SNP R102G
Described as above. As to the method:
as §1

Assay [9] concerns the target T2, human C3b. Briefly: SPR; reference: the same molecule on intact human C3. As to the method: as §1

T5 sequence (P01024 other isoform, or with tags, fused parts or gaps P314L P314L limits assumed): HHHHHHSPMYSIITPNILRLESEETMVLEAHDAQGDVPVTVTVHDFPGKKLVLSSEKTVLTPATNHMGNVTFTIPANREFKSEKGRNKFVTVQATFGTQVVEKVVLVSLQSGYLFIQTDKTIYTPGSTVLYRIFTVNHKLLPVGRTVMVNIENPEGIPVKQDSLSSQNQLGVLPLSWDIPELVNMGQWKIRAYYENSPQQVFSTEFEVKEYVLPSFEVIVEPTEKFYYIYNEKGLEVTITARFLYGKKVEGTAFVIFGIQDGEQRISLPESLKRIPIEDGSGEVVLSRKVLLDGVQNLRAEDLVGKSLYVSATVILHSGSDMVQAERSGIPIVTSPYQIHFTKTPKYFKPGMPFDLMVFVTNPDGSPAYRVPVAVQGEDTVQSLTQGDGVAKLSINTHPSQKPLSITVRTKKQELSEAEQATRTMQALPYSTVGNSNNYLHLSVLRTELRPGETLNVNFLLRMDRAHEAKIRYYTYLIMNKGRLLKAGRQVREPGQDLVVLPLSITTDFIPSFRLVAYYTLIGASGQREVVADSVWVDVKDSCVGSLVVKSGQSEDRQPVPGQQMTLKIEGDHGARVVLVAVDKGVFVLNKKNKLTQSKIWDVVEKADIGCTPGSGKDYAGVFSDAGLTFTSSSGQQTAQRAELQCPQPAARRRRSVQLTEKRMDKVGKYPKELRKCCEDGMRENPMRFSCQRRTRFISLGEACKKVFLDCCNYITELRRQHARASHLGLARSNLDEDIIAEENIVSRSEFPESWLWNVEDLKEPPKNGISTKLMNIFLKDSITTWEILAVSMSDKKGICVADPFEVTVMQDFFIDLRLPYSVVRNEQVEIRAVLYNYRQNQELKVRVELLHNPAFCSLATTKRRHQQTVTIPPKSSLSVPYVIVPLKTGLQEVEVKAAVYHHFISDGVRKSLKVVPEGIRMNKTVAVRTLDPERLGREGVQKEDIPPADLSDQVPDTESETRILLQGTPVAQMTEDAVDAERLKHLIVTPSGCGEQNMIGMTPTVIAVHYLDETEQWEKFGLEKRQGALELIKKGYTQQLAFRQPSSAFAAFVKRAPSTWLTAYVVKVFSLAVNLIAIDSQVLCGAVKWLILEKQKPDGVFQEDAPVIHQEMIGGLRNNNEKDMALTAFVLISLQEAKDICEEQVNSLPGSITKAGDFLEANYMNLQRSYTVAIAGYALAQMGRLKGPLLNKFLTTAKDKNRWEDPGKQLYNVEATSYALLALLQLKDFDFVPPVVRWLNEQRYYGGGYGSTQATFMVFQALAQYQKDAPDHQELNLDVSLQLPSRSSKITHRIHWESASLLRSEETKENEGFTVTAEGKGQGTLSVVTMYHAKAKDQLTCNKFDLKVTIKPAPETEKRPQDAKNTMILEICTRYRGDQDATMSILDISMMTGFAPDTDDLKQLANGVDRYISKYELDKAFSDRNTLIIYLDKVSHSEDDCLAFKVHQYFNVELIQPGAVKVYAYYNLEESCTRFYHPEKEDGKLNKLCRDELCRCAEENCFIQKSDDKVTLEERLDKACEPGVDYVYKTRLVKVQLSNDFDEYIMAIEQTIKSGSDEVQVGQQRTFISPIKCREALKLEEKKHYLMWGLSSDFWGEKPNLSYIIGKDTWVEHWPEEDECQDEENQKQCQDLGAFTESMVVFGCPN
T1 sequence (P01024 23-1663 limits assumed): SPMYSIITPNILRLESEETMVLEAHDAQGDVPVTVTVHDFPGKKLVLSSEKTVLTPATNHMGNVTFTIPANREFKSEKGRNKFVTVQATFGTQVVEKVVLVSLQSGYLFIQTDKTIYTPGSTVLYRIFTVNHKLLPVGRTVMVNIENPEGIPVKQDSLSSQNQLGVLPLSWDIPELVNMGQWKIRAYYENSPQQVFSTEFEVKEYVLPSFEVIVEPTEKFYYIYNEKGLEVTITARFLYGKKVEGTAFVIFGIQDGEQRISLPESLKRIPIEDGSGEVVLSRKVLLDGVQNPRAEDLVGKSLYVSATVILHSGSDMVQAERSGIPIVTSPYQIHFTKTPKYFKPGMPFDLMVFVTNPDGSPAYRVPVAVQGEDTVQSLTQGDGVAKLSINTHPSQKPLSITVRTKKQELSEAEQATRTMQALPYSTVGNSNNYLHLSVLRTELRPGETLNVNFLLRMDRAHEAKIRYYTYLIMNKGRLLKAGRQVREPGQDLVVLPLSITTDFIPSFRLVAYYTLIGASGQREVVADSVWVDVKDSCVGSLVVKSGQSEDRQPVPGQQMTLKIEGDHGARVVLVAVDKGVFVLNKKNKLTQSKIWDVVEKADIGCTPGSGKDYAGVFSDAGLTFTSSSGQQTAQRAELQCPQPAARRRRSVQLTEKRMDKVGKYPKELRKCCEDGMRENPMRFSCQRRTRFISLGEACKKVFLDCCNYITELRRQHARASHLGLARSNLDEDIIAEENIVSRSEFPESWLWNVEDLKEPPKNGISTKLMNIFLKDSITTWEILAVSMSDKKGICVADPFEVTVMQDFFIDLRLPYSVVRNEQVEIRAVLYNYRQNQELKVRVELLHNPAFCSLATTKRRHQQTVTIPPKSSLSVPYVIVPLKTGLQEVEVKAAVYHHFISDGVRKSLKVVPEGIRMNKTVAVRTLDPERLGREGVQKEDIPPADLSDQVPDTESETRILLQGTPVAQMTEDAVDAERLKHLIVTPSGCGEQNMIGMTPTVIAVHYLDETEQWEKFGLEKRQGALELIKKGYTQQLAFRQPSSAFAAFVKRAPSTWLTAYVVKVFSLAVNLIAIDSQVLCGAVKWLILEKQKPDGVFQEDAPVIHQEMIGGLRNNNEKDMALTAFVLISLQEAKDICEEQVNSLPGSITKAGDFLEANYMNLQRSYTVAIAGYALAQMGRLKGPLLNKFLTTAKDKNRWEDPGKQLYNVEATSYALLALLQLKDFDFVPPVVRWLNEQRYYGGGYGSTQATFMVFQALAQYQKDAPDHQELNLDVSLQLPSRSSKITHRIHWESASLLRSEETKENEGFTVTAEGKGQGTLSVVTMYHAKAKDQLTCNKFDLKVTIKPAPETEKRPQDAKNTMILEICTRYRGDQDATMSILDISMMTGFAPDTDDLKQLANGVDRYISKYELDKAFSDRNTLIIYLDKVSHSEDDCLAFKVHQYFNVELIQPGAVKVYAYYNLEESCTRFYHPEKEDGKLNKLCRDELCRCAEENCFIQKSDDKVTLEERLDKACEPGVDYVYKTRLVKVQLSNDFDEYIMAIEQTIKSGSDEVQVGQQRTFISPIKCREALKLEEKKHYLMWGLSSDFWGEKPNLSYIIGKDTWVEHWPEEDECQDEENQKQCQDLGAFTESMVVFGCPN
T4 sequence (P01024 other isoform, or with tags, fused parts or gaps limits assumed): as the sequence (P01024 other isoform, or with tags, fused parts or gaps P314L P314L limits assumed) above, with L298P counted along it
T2 sequence (P01024 23-667 limits assumed, chain 1 of 2): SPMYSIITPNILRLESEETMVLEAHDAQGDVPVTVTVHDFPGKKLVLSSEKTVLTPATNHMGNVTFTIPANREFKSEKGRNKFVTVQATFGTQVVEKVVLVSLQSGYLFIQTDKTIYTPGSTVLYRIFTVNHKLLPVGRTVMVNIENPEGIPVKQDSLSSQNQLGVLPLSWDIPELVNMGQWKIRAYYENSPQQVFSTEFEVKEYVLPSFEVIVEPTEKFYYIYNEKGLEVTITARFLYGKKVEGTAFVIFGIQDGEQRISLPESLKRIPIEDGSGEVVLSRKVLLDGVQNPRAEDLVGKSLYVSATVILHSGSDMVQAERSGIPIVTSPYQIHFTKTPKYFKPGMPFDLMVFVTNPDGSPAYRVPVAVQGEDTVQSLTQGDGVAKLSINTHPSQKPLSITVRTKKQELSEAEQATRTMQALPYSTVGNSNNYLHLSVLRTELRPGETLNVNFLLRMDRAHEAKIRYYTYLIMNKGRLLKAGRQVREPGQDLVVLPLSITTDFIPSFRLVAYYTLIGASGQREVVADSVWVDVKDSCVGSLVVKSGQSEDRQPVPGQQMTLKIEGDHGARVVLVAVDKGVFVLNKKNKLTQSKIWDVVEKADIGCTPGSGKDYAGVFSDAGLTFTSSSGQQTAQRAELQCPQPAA
T2 sequence (P01024 749-1663 limits assumed, chain 2 of 2): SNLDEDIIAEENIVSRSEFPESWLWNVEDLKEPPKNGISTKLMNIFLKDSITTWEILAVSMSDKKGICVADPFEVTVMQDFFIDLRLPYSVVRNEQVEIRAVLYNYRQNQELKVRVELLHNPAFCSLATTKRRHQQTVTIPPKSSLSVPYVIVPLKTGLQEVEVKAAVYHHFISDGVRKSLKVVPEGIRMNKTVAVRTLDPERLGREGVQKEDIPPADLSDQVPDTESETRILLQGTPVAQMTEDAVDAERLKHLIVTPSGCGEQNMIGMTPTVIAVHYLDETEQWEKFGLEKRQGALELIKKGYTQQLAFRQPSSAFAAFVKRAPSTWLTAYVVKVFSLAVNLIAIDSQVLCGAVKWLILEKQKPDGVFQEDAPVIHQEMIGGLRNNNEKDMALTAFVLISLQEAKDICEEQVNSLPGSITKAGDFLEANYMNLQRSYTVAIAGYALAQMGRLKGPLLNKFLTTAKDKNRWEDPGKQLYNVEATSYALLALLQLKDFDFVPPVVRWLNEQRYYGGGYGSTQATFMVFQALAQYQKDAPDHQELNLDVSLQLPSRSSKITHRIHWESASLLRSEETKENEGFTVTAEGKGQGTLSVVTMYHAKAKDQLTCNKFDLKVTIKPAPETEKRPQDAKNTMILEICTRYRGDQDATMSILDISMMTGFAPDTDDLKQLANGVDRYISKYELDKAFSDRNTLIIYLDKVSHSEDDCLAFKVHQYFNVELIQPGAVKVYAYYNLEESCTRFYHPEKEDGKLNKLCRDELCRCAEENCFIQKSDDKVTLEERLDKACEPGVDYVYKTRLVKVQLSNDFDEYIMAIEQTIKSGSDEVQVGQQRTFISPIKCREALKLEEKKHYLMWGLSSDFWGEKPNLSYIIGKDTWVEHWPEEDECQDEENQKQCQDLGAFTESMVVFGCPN
T6 sequence (P01024 other isoform, or with tags, fused parts or gaps R102G R102G limits assumed): as the sequence (P01024 other isoform, or with tags, fused parts or gaps P314L P314L limits assumed) above, with R86G, L298P counted along it

B1: Clone I (scFv)
scFv: MQLVLTQSPSASASLGASVKLTCTLSSAHKTYTIDWYQQQPEKCPRYLMQLKSDGSYTKGSGIPDRFSGSSSGAERYLTISSLQSEDEADYYCGTEGVGGYVFGGGTKLTVLGGGGGSGGGGSGGGGSGGGGSQVQLVESGGGSVQPGRSLRLSCAASGFTFSNYAMNWVRQAPGKGLEWVAVISYDGSNKYYADSVKGRFTISRDNSKNTLYLQMNSLRAEDTASYYCARAVGYHHARLDPWGCGTSVTVSS
notes: also called exemplary antibody of the invention (Clone I); scFv of the invention
Broadly, the Kd is the equilibrium constant for the complex coming apart. A word on the koff: it is the first-order rate constant of dissociation. By kon is commonly meant the rate constant with which the complex forms. B1: the “IC50 (nM), Alternative Pathway, Hemolysis (rabbit erythrocytes, human serum)” value in the assay with human complement C3 [1] turned out to be 705 nM. In the assay with human complement C3 [1], the “IC50 (nM), Alternative Pathway, MAC deposition (WEISLAB, human serum)” value was found to be 344 nM. In the assay with human complement C3 [1], the “IC50 (nM), Classical Pathway, Hemolysis (antibody-sensitized sheep erythrocytes, human serum)” value came out at 74 nM. Moreover, the “IC50 (nM), Classical Pathway, MAC deposition (WEISLAB, human serum)” value in the assay with human complement C3 [1] is 79 nM. In addition, the “IC50 (nM), Lectin Pathway, MAC deposition (WEISLAB, human serum)” value with human complement C3 [1] is 67 nM. Besides, the equilibrium dissociation constant (Kd) with human complement C3 [2] came out at 0.16 nM; with human C3b [3], 0.14 nM; in the assay with human complement C3 [4], 0.152 nM; with human C3b [5] it was 0.149 nM; with human complement C3 [6], 0.152 nM; in the assay with human C3b [7], 0.149 nM. For the same molecule, the Kd in the assay with cynomolgus C3 was found to be 0.267 nM; in assay [8] it was 0.148 nM; in the assay with human C3 P314L, 0.14 nM; with human C3 R102G, 0.135 nM. Further, the koff with human complement C3 [6] is 4.7e-05 s⁻¹; with human C3b [7], 4.8e-05 s⁻¹; with cynomolgus C3, 6.3e-05 s⁻¹; in assay [8] it was 4.9e-05 s⁻¹; with human C3 P314L, 4.2e-05 s⁻¹; with human C3 R102G, 4.5e-05 s⁻¹. Moreover, the kon in the assay with human complement C3 [6] is 310000 M⁻¹ s⁻¹; with human C3b [7], 320000 M⁻¹ s⁻¹; with cynomolgus C3 it was 240000 M⁻¹ s⁻¹; in assay [8], 330000 M⁻¹ s⁻¹; with human C3 P314L it was 300000 M⁻¹ s⁻¹; with human C3 R102G it was 330000 M⁻¹ s⁻¹.

B2: Compound A3 Fab (Fab, V domains shown)
VH: QVQLVQSGAEVKKPGASVKVSCKASGYTFTDFYMDWVRQAPGQRLEWMGYIYPHNGGTTYNQQFTGRVTITVDKSASTAYMELSSLRSEDTAVYYCARRGGFDFDYWGQGTLVTVSS
VL: DIQMTQSPSSLSASVGDRVTITCKASENVDTYVSWYQQKPGKAPKLLIYGASNRYTGVPSRFSGSGSGTDFTFTISSLQPEDIATYHCGQSHSYPLTFGQGTKLEIKR
notes: also called NGM621 surrogate in a Fab format
For the molecule B2, the “fold lower affinity to C3b than to intact human C3” value with human C3b [9] is above 100 fold. Moreover, the Kd with human complement C3 [4] turned out to be 0.34 nM.
